The source of these data is publication PMC4027183.

Like-named read-outs stand apart in the source and are kept apart here.

Assay in all cases: ITC
Background: Isothermal titration calorimetry measures the heat released or taken up as one component is titrated into another.

Data set [1] has as its target T1, TIA-1 RRM2,3 (Homo sapiens, UniProt P31483-2 93-274).
T1 sequence: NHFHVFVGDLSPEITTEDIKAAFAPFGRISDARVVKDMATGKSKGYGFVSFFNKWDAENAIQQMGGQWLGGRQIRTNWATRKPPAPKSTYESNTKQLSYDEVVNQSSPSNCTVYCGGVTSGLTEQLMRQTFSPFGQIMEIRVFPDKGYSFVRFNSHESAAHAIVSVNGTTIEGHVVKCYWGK

For data set [2], the target named is T1, TIA-1 RRM2,3. This is another data set of the same source.
Another data set addresses T2, TIA-1 RRM1,2,3 (Homo sapiens, UniProt P31483-2 1-274).
T2 sequence: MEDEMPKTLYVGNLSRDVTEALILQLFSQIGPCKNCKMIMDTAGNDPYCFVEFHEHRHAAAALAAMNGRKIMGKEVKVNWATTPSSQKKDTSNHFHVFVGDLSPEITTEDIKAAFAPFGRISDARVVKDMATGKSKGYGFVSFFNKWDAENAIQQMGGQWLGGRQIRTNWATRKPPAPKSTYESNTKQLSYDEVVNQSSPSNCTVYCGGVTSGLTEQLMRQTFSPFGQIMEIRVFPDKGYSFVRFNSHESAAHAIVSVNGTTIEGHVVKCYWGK

The target in data set [3] is T1, TIA-1 RRM2,3. The source holds these as a separate data set.

B1: U9 (ssRNA)
RNA: UUUUUUUUU
As usually defined, the Kd is a measure of binding affinity in units of concentration. For the molecule B1, the values for the Kd with TIA-1 RRM2,3 [1] and with TIA-1 RRM2,3 [2] were 5.6 ± 1.9 nM and 7 ± 0.2 nM, respectively.

B2: U15 (ssRNA)
RNA: UUUUUUUUUUUUUUU
In turn, B2 displayed a Kd with TIA-1 RRM1,2,3 of 16.9 ± 2.7 nM.

B3: fas_10 (ssRNA)
RNA: UUCUCCUUUC
B3: binding with TIA-1 RRM2,3 [3] was characterised by a dissociation constant (Kd) of 35.6 ± 8.1 nM.
